Ten molecules from US20150093336A1 (VIB VZW, published 2015) can be followed below.

Positions count from the first letter of the chain named.

The chains are these.
B1: NbhmMMRm14.4 (VHH)
VHH: QVQLQESGGGLVQAGDSLRLSCAASGRTFSINYMGWYRQAPGKQRELVAAITSGSGSTNYADSVKGRFTISRDNAKNTMYLQMNSLKPEDTAVYYCNADMDSSLSGGYVDVWGQGTQVTVSS
notes: Produced from pMECS with C-terminal HA and 6xHis tag
B2: NbhmMMRm14.93 (VHH)
VHH: B1 VHH with N77K
notes: as for B1
B3: NbhMMRm10.19 (VHH)
VHH: QVQLQESGGGLVQPGGSLKLSCAASGSIFSIKTMGWYRQAPGKQRELVAAITSGGSTNYADSVKGRFTISRDNAKNTVYLQMNSLKPEDTAVYYCNADGVVAWDQPYDNYWGQGTQVTVSS
notes: as for B1
B4: NbhmMMRm10.79 (VHH)
VHH: B3 VHH with I51V, T52S, T77A
notes: as for B1
B5: NbhmMMRm19.52 (VHH)
VHH: QVQLQESGGGLVQAGGSLRLSCLASGDTFSNYVMAWFRQAPGKEREIVAAIRLSGARYVPDSVKGRFTISRDNAKNAMYLQMTSLKPEDTARYYCAAGHTWGQYAYWGQGTQVTVSS
notes: as for B1
B6: NbhmMMRm20.52 (VHH)
VHH: QVQLQESGGGLVQAGGSLRLSCAASGRIFSAYAMGWFRQAPGKEREFVAAISRSGDSTDYADSVKGRFTISRDSAKNMVYLQMNSLKPEDTALYHCAARTVSAPPSAAWGYGYWGQGTQVTVSS
notes: as for B1
B7: NbhMMRm2.15 (VHH)
VHH: QVQLQESGGGLVQPGESLRLSCKLSGFTLDYYDIGWFRQAPGKEREGVSCISSIGGSANYADSVKGRFTISRDNVKNTVYLQMNSLKPEDTAIYYCAAEAQTPYNDGDCTRASYDYWGQGIQVTVSS
notes: as for B1
B8: NbhMMRm3.1 (VHH)
VHH: QVQLQESGGGLVQPGGSLRLSCAASGFTLDYYAIGWFRQAPGKEREGISCISYKGGSTTYADSVKGRFTISKDNAKNTAYLQMNNLKPEDTGIYYCAAGFVCYNYDYWGPGTQVTVSS
notes: Produced from pMECS with C-terminal HA and 6xHis tag; also called NbhmMMRm3.1
B9: NbhmMMRm3.49 (VHH)
VHH: B8 VHH with T28S, N85S, Y95S, P110Q
notes: Produced from pMECS with C-terminal HA and 6xHis tag; also called NbhMMRm3.49
B10: NbhMMRm1.33 (VHH)
VHH: QVQLQESGGGLVQPGGSLRLSCAASGFTLDNYTVAWFRQAPGKEREGVSCISSSGGSTNYADSVKGRFTISRDNSKKSVYLQMNSLKPEDTAIYTCAAERAPPYYSGYYFFDSTCVAASYDYWGQGTQVTVSS
notes: Produced from pMECS in E. coli WK6 with C-terminal HA and 6xHis tag; also called NbMMRm1.33

In the first assay the target is T1, Recombinant human MMR (R&D systems) (human, UniProt P22897 19-1383).
T1 construct: Antigen of the PE-ELISA and the SPR; also called hMMR; recombinant hMMR
T1 sequence: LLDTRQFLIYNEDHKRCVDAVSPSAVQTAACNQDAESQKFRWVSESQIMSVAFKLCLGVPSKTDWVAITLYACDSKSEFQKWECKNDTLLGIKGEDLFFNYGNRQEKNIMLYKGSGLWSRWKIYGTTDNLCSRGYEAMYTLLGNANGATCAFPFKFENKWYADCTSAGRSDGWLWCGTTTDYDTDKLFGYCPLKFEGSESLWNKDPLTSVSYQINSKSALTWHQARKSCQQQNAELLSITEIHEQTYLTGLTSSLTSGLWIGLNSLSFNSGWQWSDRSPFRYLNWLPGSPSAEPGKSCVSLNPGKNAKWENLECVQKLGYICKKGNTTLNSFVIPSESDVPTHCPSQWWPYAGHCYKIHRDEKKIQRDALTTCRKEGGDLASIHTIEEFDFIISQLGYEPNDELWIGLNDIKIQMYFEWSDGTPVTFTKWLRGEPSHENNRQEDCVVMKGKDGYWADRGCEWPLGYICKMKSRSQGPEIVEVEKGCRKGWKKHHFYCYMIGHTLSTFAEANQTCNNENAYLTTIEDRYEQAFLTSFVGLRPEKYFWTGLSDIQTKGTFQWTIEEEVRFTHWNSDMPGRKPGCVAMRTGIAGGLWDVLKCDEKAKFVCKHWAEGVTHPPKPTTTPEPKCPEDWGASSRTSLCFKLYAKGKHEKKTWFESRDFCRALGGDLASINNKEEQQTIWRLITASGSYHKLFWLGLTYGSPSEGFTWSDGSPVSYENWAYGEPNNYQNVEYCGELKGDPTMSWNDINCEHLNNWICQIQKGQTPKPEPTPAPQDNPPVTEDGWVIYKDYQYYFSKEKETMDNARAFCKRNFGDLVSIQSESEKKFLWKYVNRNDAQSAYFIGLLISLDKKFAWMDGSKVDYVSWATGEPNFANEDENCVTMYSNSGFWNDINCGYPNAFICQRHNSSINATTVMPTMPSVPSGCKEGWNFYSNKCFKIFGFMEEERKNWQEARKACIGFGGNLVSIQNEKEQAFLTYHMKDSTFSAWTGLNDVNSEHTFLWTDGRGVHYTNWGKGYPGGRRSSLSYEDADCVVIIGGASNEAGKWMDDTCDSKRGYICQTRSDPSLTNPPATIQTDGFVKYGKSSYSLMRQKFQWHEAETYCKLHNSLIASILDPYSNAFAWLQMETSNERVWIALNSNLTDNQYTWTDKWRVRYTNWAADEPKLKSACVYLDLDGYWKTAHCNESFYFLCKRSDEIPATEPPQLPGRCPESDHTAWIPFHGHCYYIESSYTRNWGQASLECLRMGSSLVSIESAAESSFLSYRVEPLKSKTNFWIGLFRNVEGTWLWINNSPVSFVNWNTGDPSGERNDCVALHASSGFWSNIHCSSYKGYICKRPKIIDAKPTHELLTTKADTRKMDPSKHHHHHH
Kind of assay: SPR, BIAcore T100; human MMR on CM5 chip, sdAb as analyte. Here is the method: (§1) Affinity analysis was performed using a BIAcore™ T100 (GE Healthcare) with HEPES-buffered saline running buffer (10 mM HEPES with 0.15 M NaCl, 3.4 mM EDTA and 0.005% surfactant P20 at pH 7.4). MRR was immobilized on a CM5 chip in acetate buffer 50 mM (pH 5.0), resulting in 2100 RU MMR coated on the chip. A second channel on the same chip was activated/deactivated in a similar way and served as a negative control. The MMR sdAbs were used as analytes in eleven different concentrations, ranging from 1 to 2000 nM, at a flow rate of […]. Glycine-HCl 50 mM (pH 2.0) was used for elution. The kinetic and equilibrium parameters (kd, ka and KD) values were calculated from the combined sensogram of all concentrations using BIAcore™ T100 evaluation software 2.02 (GE Healthcare).
(§2) The binding characteristics and affinity of selected Nbs towards the recombinant hMMR and recombinant mMMR antigen was examined in further detail using surface plasmon resonance. A combined sensogram was recorded for each Nb (example for NbhmMMRm3.49 in FIG. 5) and the kinetic and equilibrium parameters (kd, ka and KD) values were calculated (Table 4 and Table 5). Most but not all results on binding to mouse or human rMMR obtained via this SPR analysis are in agreement with the results obtained by PE-ELISA.
On to B1, for which the Kd – broadly, a measure of binding affinity in units of concentration – was found to be 10 nM; the off-rate constant (koff) – broadly, a measure of how fast the partners let go of each other – was 0.0014 s⁻¹; the on-rate constant (kon) (usually the rate constant with which the complex forms) stood at 140000 M⁻¹ s⁻¹.

As for B2, the Kd worked out at 13 nM, the koff was 0.0012 s⁻¹ and the kon came out at 95000 M⁻¹ s⁻¹.

As for B3, the Kd was 50 nM, the koff came to 0.031 s⁻¹ and the on-rate (kon) is 750000 M⁻¹ s⁻¹.

Consider B4, for which the Kd turned out to be 420 nM, the koff is 0.0066 s⁻¹ and the on-rate (kon) came to 16000 M⁻¹ s⁻¹.

On to B5, for which the Kd came to 1700 nM, the koff came out at 0.01 s⁻¹ and the kon was found to be 6000 M⁻¹ s⁻¹.

As for B6, the Kd was found to be 260 nM, the dissociation rate constant (koff) was found to be 0.13 s⁻¹ and the kon was 510000 M⁻¹ s⁻¹.

Regarding B7, the dissociation constant (Kd) came out at 8.6 nM, the koff worked out at 0.0013 s⁻¹ and the kon turned out to be 150000 M⁻¹ s⁻¹.

For B8, the Kd stood at 3.4 nM, the off-rate (koff) is 0.00074 s⁻¹ and the kon stood at 220000 M⁻¹ s⁻¹.

Consider B9, for which the Kd came out at 1.8 nM, the dissociation rate constant (koff) turned out to be 0.0008 s⁻¹ and the kon stood at 440000 M⁻¹ s⁻¹.

As for B10, the Kd worked out at 7.7 nM, the koff was found to be 0.0015 s⁻¹ and the kon is 200000 M⁻¹ s⁻¹.

In the next assay the target is T2, Recombinant mouse MMR (R&D systems) (mouse, UniProt Q61830 20-1388).
T2 construct: Antigen of the PE-ELISA and the SPR; also called mMMR; recombinant mMMR
T2 sequence: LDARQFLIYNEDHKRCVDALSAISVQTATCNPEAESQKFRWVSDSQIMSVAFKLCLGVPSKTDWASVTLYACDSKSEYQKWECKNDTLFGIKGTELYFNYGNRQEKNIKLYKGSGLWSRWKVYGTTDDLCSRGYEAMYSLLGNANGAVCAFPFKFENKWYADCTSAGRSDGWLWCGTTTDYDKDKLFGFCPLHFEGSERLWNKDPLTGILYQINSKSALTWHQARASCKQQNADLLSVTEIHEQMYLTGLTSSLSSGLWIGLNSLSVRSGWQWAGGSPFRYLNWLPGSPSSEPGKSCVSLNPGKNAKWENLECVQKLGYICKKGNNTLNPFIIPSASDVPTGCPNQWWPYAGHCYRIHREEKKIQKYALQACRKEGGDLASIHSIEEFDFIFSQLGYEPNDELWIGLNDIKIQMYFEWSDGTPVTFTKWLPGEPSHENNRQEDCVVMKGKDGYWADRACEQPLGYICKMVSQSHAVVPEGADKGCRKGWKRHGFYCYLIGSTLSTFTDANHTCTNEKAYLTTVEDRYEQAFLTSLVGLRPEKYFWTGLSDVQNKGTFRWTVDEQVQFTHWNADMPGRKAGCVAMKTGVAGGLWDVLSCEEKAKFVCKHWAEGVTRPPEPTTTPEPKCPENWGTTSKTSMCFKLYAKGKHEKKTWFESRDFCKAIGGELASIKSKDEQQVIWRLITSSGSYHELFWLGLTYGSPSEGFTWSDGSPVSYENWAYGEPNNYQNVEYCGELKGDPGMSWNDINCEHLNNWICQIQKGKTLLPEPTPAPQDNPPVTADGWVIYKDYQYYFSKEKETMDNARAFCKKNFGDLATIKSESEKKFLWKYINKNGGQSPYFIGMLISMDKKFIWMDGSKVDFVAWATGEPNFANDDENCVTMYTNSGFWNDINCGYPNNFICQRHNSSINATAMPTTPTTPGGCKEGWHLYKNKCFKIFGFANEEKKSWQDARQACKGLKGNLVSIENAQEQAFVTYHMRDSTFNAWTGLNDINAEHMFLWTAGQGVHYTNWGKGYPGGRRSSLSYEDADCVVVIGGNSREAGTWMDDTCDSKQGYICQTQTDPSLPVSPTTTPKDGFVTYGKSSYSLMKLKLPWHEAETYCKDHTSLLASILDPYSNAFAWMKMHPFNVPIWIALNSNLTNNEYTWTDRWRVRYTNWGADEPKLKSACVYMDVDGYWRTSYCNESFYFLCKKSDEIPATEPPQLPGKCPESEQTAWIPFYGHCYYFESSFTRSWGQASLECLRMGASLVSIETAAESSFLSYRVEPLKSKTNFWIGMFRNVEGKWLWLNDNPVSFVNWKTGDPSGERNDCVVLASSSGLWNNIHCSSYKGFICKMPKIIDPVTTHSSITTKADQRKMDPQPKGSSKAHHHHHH
Briefly: SPR, BIAcore T100; mouse MMR on CM5 chip, sdAb as analyte. As for the experimental part: as §1, §2
A general note: Surface plasmon resonance follows binding to a sensor surface in real time, without labels.
In the case of B1, the Kd was found to be 68 nM, the off-rate (koff) is 0.0023 s⁻¹ and the kon amounted to 33000 M⁻¹ s⁻¹.

Consider B2, for which the Kd turned out to be 74 nM, the off-rate constant (koff) is 0.0021 s⁻¹ and the kon was found to be 29000 M⁻¹ s⁻¹.

As to B3, the Kd is 250 nM, the koff was 0.21 s⁻¹ and the kon was 840000 M⁻¹ s⁻¹.

In the case of B4, the Kd is 39 nM, the koff amounted to 0.0042 s⁻¹ and the kon was found to be 110000 M⁻¹ s⁻¹.

In the case of B5, the dissociation constant (Kd) is 8500 nM, the koff came to 0.032 s⁻¹ and the kon was determined as 3700 M⁻¹ s⁻¹.

As to B6, the Kd was found to be 1.3 nM, the koff is 0.002 s⁻¹ and the kon was 1.6e+06 M⁻¹ s⁻¹.

As for B7, the binding result is “no binding (tested: analyte 1 to 2000 nM)”.

With B8, the Kd was 19 nM, the koff was 0.004 s⁻¹ and the kon came out at 210000 M⁻¹ s⁻¹.

On to B9, for which the Kd stood at 12 nM, the koff came to 0.0036 s⁻¹ and the kon was found to be 290000 M⁻¹ s⁻¹.

B10: the binding result is reported as “no binding (tested: analyte 1 to 2000 nM)”.
